Patent US9987370B2, “Self-assembling drug amphiphiles and methods for synthesis and use” (priority 2012, dated 2018)
Side chains are listed from the residue outwards. Ends that are not written are not given here. Peptide text beside a SMILES is read from it. * marks the point of attachment. X1 = CC(=O)N[C@@H](CSSCCCC(=O)O[C@@H](C(=O)O[C@H]1C[C@@]2(O)[C@@H](OC(=O)c3ccccc3)[C@@H]3[C@]4(OC(C)=O)CO[C@@H]4C[C@H](O)[C@@]3(C)C(=O)[C@H](OC(C)=O)C(=C1C)C2(C)C)[C@@H](NC(=O)c1ccccc1)c1ccccc1)C(=O)*; Paclitaxel(2'-OCO(CH2)3S) = CC(=O)O[C@H]1C(=O)[C@@]2(C)[C@H]([C@H](OC(=O)c3ccccc3)[C@]3(O)C[C@H](OC(=O)[C@H](OC(=O)CCCS*)[C@@H](NC(=O)c4ccccc4)c4ccccc4)C(C)=C1C3(C)C)[C@]1(OC(C)=O)CO[C@@H]1C[C@@H]2O; buSS = disulfanylbutanoate linker

Assays:
[1] = test system: co-culture of KB-3-1 and KB-V1 cervical cancer cells; conditions: co-culture KB-3-1 and KB-V1, 48 hours
Description: Cell viability was determined by SRB assay after 48 hours incubation with the appropriate drug-containing media. […] Data are given as mean±s.d. (n=3).
Cell Culture. KB-3-1 and KB-V1 ovarian cancer cells were cultured in DMEM (Invitrogen) containing 10% fetal bovine serum (FBS, Invitrogen) and 1% of antibiotics (Invitrogen), and 1 μg/mL vinblastine was added for KB-V1 to maintain its multidrug resistance. The two cell types were incubated at 37° C. in an Oasis humidified incubator with a 5% CO2 atmosphere (Caron, Marietta, Ohio).
Cytotoxicity Protocol. KB-3-1, KB-V1 or their co-culture (1:1) were seeded onto 96-well plate (5×10^3 cells/well) and allowed to attach overnight. […] Medium containing the same concentration of PXL or/and CPT in the form of free drugs or conjugates (dCPT-Sup35 or dPXL-Sup35) were also used to incubate the cells, with non-treated cells (solvent only) as the control group. After 48 hours incubation, the cell viability was determined using the SRB method according to the manufacturer's protocol (TOX-6, Sigma, St. Louis, Mo.).

[2] = test system: PXL-resistant KB-V1 cervical cancer cells; test: Cytotoxicity study of dual drug amphiphiles by SRB; assay type: cell-based; conditions: KB-V1, 48 hours
Description: (§1) Both cell lines are sensitive to CPT. […] (n=3).
(§2) Cytotoxicity Study. The activity of the synthesized conjugates to prohibit proliferative ability was assessed through the determination of a dose-response relationship against PXL-sensitive and -resistant cervical cancer cell lines—KB-3-1 and KB-V1, respectively. Both cell lines were individually incubated for 48 hours with the conjugates alone or in combination, either individually to determine their sensitivity to the conjugates (FIGS. 46 a-b) and also as a co-culture to mimic a heterogeneous tumor (FIG. 46 c). […] This antagonistic behavior has been previously observed, and is suspected to arise from an up-regulation of anti-apoptosis genes on co-treatment with CPT that would inhibit the mechanism by which PXL exerts its cytotoxicity.

[3] = test system: PXL-sensitive KB-3-1 cervical cancer cells; test: Cytotoxicity study of dual drug amphiphiles by SRB; assay type: cell-based; conditions: KB-3-1, 48 hours
Description: as §1, §2

[4] = test system: human prostate cancer PC-3 FLU; test: Cytotoxicity of PXL-buSS-Tau by SRB assay; assay type: cell-based; conditions: 48 hours
Description: (§3) To evaluate anti-tumor efficacy, the cytotoxicity of PXL-buSS-Tau towards human breast cancer MCF-7, non-small cell lung cancer A549, and human prostate cancer PC-3 FLU cell lines was determined (FIG. 33).

[5] = test system: non-small cell lung cancer A549; assay type: cell-based, human
Description: as §3

[6] = test system: human breast cancer MCF-7; assay type: cell-based
Description: as §3

[7] = PXL release study in PBS buffer at 37° C.; assay type: physicochemical
Description: FIG. 32 depicts the PXL-buSS-Tau release curve in PBS buffer under 37° C.
PXL release studies were carried out at 100 μM and 5 μM concentrations in PBS buffer at 37° C. (FIG. 32). […] After 2 hrs, around 70% of the PXL-buSS-Tau was cleaved by glutathione at 5 μM while only 40% paclitaxel was released at 100 μM, again illustrating the protective effect that self-assembly into nanostructures has upon the biodegradable linker.

[8] = Critical micellization concentration of CPT drug amphiphiles by a fluorescence method; assay type: physicochemical; conditions: 10 mM sodium phosphate
Description: FIGS. 5A-5C depicts the fluorometric determination of the CMC values for mCPT-buSS-Tau (a), dCPT-buSS-Tau (b) and qCPT-buSS-Tau (c) in 10 mM sodium phosphate.
The critical micellization concentrations of mCPT-buSS-Tau, dCPT-buSS-Tau and qCPT-buSS-Tau were determined to be 207 nM, 74 nM and 53 nM, respectively, by a fluorescence method (FIG. 5). These very low values are in the range of macromolecular amphiphiles and are an important property of these conjugates. A high value would lead to rapid dissociation of the nanostructure when diluted upon introduction into the bloodstream, whereas a low value would impart greater stability to the assembly during circulation.

Compound: CC[C@@]1(O)C(=O)OCc2c1cc1n(c2=O)Cc2cc3ccccc3nc2-1 [CPT, camptothecin]
- activity [1]: moderate activity

Compound: CC(=O)O[C@H]1C(=O)[C@@]2(C)[C@H]([C@H](OC(=O)c3ccccc3)[C@]3(O)C[C@H](OC(=O)[C@H](O)[C@@H](NC(=O)c4ccccc4)c4ccccc4)C(C)=C1C3(C)C)[C@]1(OC(C)=O)CO[C@@H]1C[C@@H]2O [PXL, paclitaxel, reference compound]
- sensitivity of cells / activity [2]: no activity

Compound: CC(=O)N[C@@H](CSSCCCC(=O)O[C@@H](C(=O)O[C@H]1C[C@@]2(O)[C@@H](OC(=O)c3ccccc3)[C@@H]3[C@]4(OC(C)=O)CO[C@@H]4C[C@H](O)[C@@]3(C)C(=O)[C@H](OC(C)=O)C(=C1C)C2(C)C)[C@@H](NC(=O)c1ccccc1)c1ccccc1)C(=O)NCCCC[C@H](NC(=O)[C@H](CSSCCCC(=O)O[C@@H](C(=O)O[C@H]1C[C@@]2(O)[C@@H](OC(=O)c3ccccc3)[C@@H]3[C@]4(OC(C)=O)CO[C@@H]4C[C@H](O)[C@@]3(C)C(=O)[C@H](OC(C)=O)C(=C1C)C2(C)C)[C@@H](NC(=O)c1ccccc1)c1ccccc1)NC(C)=O)C(=O)NCC(=O)N[C@@H](CC(N)=O)C(=O)N[C@@H](CC(N)=O)C(=O)N[C@@H](CCC(N)=O)C(=O)N[C@@H](CCC(N)=O)C(=O)N[C@@H](CC(N)=O)C(=O)N[C@@H](Cc1ccc(O)cc1)C(=O)N[C@@H](CCCCN)C(=O)N[C@@H](CCCCN)C(N)=O [dPXL-Sup35] (Ac-C(Paclitaxel(2'-OCO(CH2)3S))K(X1)GNNQQNYKK-NH2)
- sensitivity of cells [3]: nano-molar sensitivity
- sensitivity of cells / activity [2]: no activity

Compound: PXL-buSS-Tau (Ac-CGVQIVYKK; also: PXL-buSS conjugate, attachment site not given here)
- cytotoxic effect [4]: strong cytotoxic effect
- cytotoxic effect [5]: strong cytotoxic effect
- cytotoxic effect [6]: strong cytotoxic effect
- PXL-buSS-Tau cleaved by glutathione ([7]; 5 μM, after 2 hrs, PBS, 37° C., glutathione): around 70%
- release at 5 μM compared with 100 μM ([7]; 5 μM, presence of glutathione): much faster release than that of 100 μM
- release of paclitaxel ([7]; 100 μM, after 30 minutes, presence of glutathione): Significant release of paclitaxel
- paclitaxel released ([7]; 100 μM, after 2 hrs, PBS, 37° C., glutathione): 40%

Compound: mCPT-buSS-Tau: one camptothecin linked via disulfanylbutanoate (buSS) linker to cysteine-functionalized Tau peptide CGVQIVYKK (C([buSS-camptothecin])GVQIVYKK; not fully specified (C-terminus))
- critical micellization concentration [8]: 207 nM
